PMC5343618

Target: T1, alkaline phosphatase D (PhoD) with a C-terminal 6-His tag (PhoD-H) (B. subtilis 168), P42251
T1 chain: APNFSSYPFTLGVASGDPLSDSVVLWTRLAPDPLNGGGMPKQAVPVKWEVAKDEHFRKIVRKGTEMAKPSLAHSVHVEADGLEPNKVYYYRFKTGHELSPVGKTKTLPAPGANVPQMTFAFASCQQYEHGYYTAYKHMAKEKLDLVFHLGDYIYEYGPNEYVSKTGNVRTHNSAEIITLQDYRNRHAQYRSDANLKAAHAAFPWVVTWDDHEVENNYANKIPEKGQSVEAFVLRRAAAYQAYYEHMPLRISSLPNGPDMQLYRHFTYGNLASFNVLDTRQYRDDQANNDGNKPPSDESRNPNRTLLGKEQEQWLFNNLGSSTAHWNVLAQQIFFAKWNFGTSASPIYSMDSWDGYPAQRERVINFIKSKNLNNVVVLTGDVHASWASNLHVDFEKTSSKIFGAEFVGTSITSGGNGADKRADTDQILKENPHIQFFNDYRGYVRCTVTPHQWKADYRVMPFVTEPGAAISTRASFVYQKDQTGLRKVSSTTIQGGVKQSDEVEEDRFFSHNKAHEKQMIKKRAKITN
Test: cross-linking; in vivo cross-linking of B. subtilis cells with 0.5 mM DSS in PBS pH 8.3, 20 min at 37 °C; cells recovered 1 h in fresh medium; 10% SDS-PAGE with β-mercaptoethanol and anti-His immunoblot of cell and supernatant fractions
Settings: remark: other sources report otherwise

stoichiometry N: 2
B1: alkaline phosphatase D (PhoD) with a C-terminal 6-His tag (PhoD-H), P42251 57-583 (enzyme)
chain: T1 chain
